Measurements taken from patent US20190338009A1 (ZEALAND PHARMA A S, published 2019).
Square brackets hold non-standard residues; d marks the D form. Aib = CC(C)(N)C(=O)O

T1: human GLP-2 receptor (hGLP2-R) (human, UniProt O95838 1-553)
T1 sequence (looked up): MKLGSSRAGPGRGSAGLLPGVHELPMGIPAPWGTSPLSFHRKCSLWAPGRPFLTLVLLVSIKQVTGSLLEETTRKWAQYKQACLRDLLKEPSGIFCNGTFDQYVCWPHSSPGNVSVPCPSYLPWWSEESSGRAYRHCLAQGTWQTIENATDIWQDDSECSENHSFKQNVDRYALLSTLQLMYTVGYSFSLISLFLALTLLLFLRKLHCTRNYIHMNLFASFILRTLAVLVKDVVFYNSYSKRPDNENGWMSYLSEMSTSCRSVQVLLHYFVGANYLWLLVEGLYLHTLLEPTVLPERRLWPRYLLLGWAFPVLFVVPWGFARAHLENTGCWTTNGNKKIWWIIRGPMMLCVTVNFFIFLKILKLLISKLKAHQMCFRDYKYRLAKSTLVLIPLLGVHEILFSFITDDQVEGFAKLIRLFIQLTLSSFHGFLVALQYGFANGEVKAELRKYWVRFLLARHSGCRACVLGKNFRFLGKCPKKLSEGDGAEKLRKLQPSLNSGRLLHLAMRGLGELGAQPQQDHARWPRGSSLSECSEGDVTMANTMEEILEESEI


Experiments:
[1] = target: human glucagon-like peptide 1 receptor (GLP-1R) (human, UniProt P43220 24-463); experiment: cell-based or functional assay
[2] = target: T1, human GLP-2 receptor (hGLP2-R); experiment: cell-based or functional assay

Binder	EC50 GLP-1 (nM); cAMP AlphaScreen, HEK293 cells expressing human GLP-1R [1]	EC50 GLP-2 (nM); cAMP AlphaScreen, HEK293 cells expressing human GLP-2R [2]
H-H[Aib]EGTFTSELATILDEQAARDFISWLIAHKITD-OH (SMILES CC[C@H](C)[C@H](NC(=O)[C@H](CC(C)C)NC(=O)[C@H](Cc1c[nH]c2ccccc12)NC(=O)[C@H](CO)NC(=O)[C@@H](NC(=O)[C@H](Cc1ccccc1)NC(=O)[C@H](CC(=O)O)NC(=O)[C@H](CCCNC(=N)N)NC(=O)[C@H](C)NC(=O)[C@H](C)NC(=O)[C@H](CCC(N)=O)NC(=O)[C@H](CCC(=O)O)NC(=O)[C@H](CC(=O)O)NC(=O)[C@H](CC(C)C)NC(=O)[C@@H](NC(=O)[C@@H](NC(=O)[C@H](C)NC(=O)[C@H](CC(C)C)NC(=O)[C@H](CCC(=O)O)NC(=O)[C@H](CO)NC(=O)[C@@H](NC(=O)[C@H](Cc1ccccc1)NC(=O)[C@@H](NC(=O)CNC(=O)[C@H](CCC(=O)O)NC(=O)C(C)(C)NC(=O)[C@@H](N)Cc1c[nH]cn1)[C@@H](C)O)[C@@H](C)O)[C@@H](C)O)[C@@H](C)CC)[C@@H](C)CC)C(=O)N[C@@H](C)C(=O)N[C@@H](Cc1c[nH]cn1)C(=O)N[C@@H](CCCCN)C(=O)N[C@H](C(=O)N[C@H](C(=O)N[C@@H](CC(=O)O)C(=O)O)[C@@H](C)O)[C@@H](C)CC) [Compound 34]	0.005 nM	0.049 nM
H-H[Aib]EGSFTSELATILDEQAARDFIAWLYRHKITD-OH (SMILES CC[C@H](C)[C@H](NC(=O)[C@H](Cc1ccccc1)NC(=O)[C@H](CC(=O)O)NC(=O)[C@H](CCCNC(=N)N)NC(=O)[C@H](C)NC(=O)[C@H](C)NC(=O)[C@H](CCC(N)=O)NC(=O)[C@H](CCC(=O)O)NC(=O)[C@H](CC(=O)O)NC(=O)[C@H](CC(C)C)NC(=O)[C@@H](NC(=O)[C@@H](NC(=O)[C@H](C)NC(=O)[C@H](CC(C)C)NC(=O)[C@H](CCC(=O)O)NC(=O)[C@H](CO)NC(=O)[C@@H](NC(=O)[C@H](Cc1ccccc1)NC(=O)[C@H](CO)NC(=O)CNC(=O)[C@H](CCC(=O)O)NC(=O)C(C)(C)NC(=O)[C@@H](N)Cc1c[nH]cn1)[C@@H](C)O)[C@@H](C)O)[C@@H](C)CC)C(=O)N[C@@H](C)C(=O)N[C@@H](Cc1c[nH]c2ccccc12)C(=O)N[C@@H](CC(C)C)C(=O)N[C@@H](Cc1ccc(O)cc1)C(=O)N[C@@H](CCCNC(=N)N)C(=O)N[C@@H](Cc1c[nH]cn1)C(=O)N[C@@H](CCCCN)C(=O)N[C@H](C(=O)N[C@H](C(=O)N[C@@H](CC(=O)O)C(=O)O)[C@@H](C)O)[C@@H](C)CC) [Compound 30]	0.1 nM	0.034 nM
H-H[Aib]EGTFSSELATILDEQAARDFIAWLIAHKITD-OH (SMILES CC[C@H](C)[C@H](NC(=O)[C@H](CC(C)C)NC(=O)[C@H](Cc1c[nH]c2ccccc12)NC(=O)[C@H](C)NC(=O)[C@@H](NC(=O)[C@H](Cc1ccccc1)NC(=O)[C@H](CC(=O)O)NC(=O)[C@H](CCCNC(=N)N)NC(=O)[C@H](C)NC(=O)[C@H](C)NC(=O)[C@H](CCC(N)=O)NC(=O)[C@H](CCC(=O)O)NC(=O)[C@H](CC(=O)O)NC(=O)[C@H](CC(C)C)NC(=O)[C@@H](NC(=O)[C@@H](NC(=O)[C@H](C)NC(=O)[C@H](CC(C)C)NC(=O)[C@H](CCC(=O)O)NC(=O)[C@H](CO)NC(=O)[C@H](CO)NC(=O)[C@H](Cc1ccccc1)NC(=O)[C@@H](NC(=O)CNC(=O)[C@H](CCC(=O)O)NC(=O)C(C)(C)NC(=O)[C@@H](N)Cc1c[nH]cn1)[C@@H](C)O)[C@@H](C)O)[C@@H](C)CC)[C@@H](C)CC)C(=O)N[C@@H](C)C(=O)N[C@@H](Cc1c[nH]cn1)C(=O)N[C@@H](CCCCN)C(=O)N[C@H](C(=O)N[C@H](C(=O)N[C@@H](CC(=O)O)C(=O)O)[C@@H](C)O)[C@@H](C)CC) [Compound 2]	0.046 nM	0.034 nM
H-H[Aib]EGTFTSELATILDEQAARDFINWLKAHKITD-OH (SMILES CC[C@H](C)[C@H](NC(=O)[C@H](Cc1ccccc1)NC(=O)[C@H](CC(=O)O)NC(=O)[C@H](CCCNC(=N)N)NC(=O)[C@H](C)NC(=O)[C@H](C)NC(=O)[C@H](CCC(N)=O)NC(=O)[C@H](CCC(=O)O)NC(=O)[C@H](CC(=O)O)NC(=O)[C@H](CC(C)C)NC(=O)[C@@H](NC(=O)[C@@H](NC(=O)[C@H](C)NC(=O)[C@H](CC(C)C)NC(=O)[C@H](CCC(=O)O)NC(=O)[C@H](CO)NC(=O)[C@@H](NC(=O)[C@H](Cc1ccccc1)NC(=O)[C@@H](NC(=O)CNC(=O)[C@H](CCC(=O)O)NC(=O)C(C)(C)NC(=O)[C@@H](N)Cc1c[nH]cn1)[C@@H](C)O)[C@@H](C)O)[C@@H](C)O)[C@@H](C)CC)C(=O)N[C@@H](CC(N)=O)C(=O)N[C@@H](Cc1c[nH]c2ccccc12)C(=O)N[C@@H](CC(C)C)C(=O)N[C@@H](CCCCN)C(=O)N[C@@H](C)C(=O)N[C@@H](Cc1c[nH]cn1)C(=O)N[C@@H](CCCCN)C(=O)N[C@H](C(=O)N[C@H](C(=O)N[C@@H](CC(=O)O)C(=O)O)[C@@H](C)O)[C@@H](C)CC) [Compound 35]	0.006 nM	0.048 nM

The remaining lines, values ahead:

EC50 GLP-1 (nM); cAMP AlphaScreen, HEK293 cells expressing human GLP-1R [1]	EC50 GLP-2 (nM); cAMP AlphaScreen, HEK293 cells expressing human GLP-2R [2]	Binder
0.004 nM	0.041 nM	H-H[Aib]EGTFTSELATILDEQAARDFINWLIAHKITD-OH (SMILES CC[C@H](C)[C@H](NC(=O)[C@H](CC(C)C)NC(=O)[C@H](Cc1c[nH]c2ccccc12)NC(=O)[C@H](CC(N)=O)NC(=O)[C@@H](NC(=O)[C@H](Cc1ccccc1)NC(=O)[C@H](CC(=O)O)NC(=O)[C@H](CCCNC(=N)N)NC(=O)[C@H](C)NC(=O)[C@H](C)NC(=O)[C@H](CCC(N)=O)NC(=O)[C@H](CCC(=O)O)NC(=O)[C@H](CC(=O)O)NC(=O)[C@H](CC(C)C)NC(=O)[C@@H](NC(=O)[C@@H](NC(=O)[C@H](C)NC(=O)[C@H](CC(C)C)NC(=O)[C@H](CCC(=O)O)NC(=O)[C@H](CO)NC(=O)[C@@H](NC(=O)[C@H](Cc1ccccc1)NC(=O)[C@@H](NC(=O)CNC(=O)[C@H](CCC(=O)O)NC(=O)C(C)(C)NC(=O)[C@@H](N)Cc1c[nH]cn1)[C@@H](C)O)[C@@H](C)O)[C@@H](C)O)[C@@H](C)CC)[C@@H](C)CC)C(=O)N[C@@H](C)C(=O)N[C@@H](Cc1c[nH]cn1)C(=O)N[C@@H](CCCCN)C(=O)N[C@H](C(=O)N[C@H](C(=O)N[C@@H](CC(=O)O)C(=O)O)[C@@H](C)O)[C@@H](C)CC) [Compound 33]
0.038 nM	0.15 nM	H-H[Aib]EGTFSSELATILDGKAARDFIAWLIAHKITD-OH (SMILES CC[C@H](C)[C@H](NC(=O)[C@H](CC(C)C)NC(=O)[C@H](Cc1c[nH]c2ccccc12)NC(=O)[C@H](C)NC(=O)[C@@H](NC(=O)[C@H](Cc1ccccc1)NC(=O)[C@H](CC(=O)O)NC(=O)[C@H](CCCNC(=N)N)NC(=O)[C@H](C)NC(=O)[C@H](C)NC(=O)[C@H](CCCCN)NC(=O)CNC(=O)[C@H](CC(=O)O)NC(=O)[C@H](CC(C)C)NC(=O)[C@@H](NC(=O)[C@@H](NC(=O)[C@H](C)NC(=O)[C@H](CC(C)C)NC(=O)[C@H](CCC(=O)O)NC(=O)[C@H](CO)NC(=O)[C@H](CO)NC(=O)[C@H](Cc1ccccc1)NC(=O)[C@@H](NC(=O)CNC(=O)[C@H](CCC(=O)O)NC(=O)C(C)(C)NC(=O)[C@@H](N)Cc1c[nH]cn1)[C@@H](C)O)[C@@H](C)O)[C@@H](C)CC)[C@@H](C)CC)C(=O)N[C@@H](C)C(=O)N[C@@H](Cc1c[nH]cn1)C(=O)N[C@@H](CCCCN)C(=O)N[C@H](C(=O)N[C@H](C(=O)N[C@@H](CC(=O)O)C(=O)O)[C@@H](C)O)[C@@H](C)CC) [Compound 32]
0.02 nM	0.078 nM	H-H[Aib]EGSFTSELATILDGKAARDFIAWLIAHKITD-OH (SMILES CC[C@H](C)[C@H](NC(=O)[C@H](CC(C)C)NC(=O)[C@H](Cc1c[nH]c2ccccc12)NC(=O)[C@H](C)NC(=O)[C@@H](NC(=O)[C@H](Cc1ccccc1)NC(=O)[C@H](CC(=O)O)NC(=O)[C@H](CCCNC(=N)N)NC(=O)[C@H](C)NC(=O)[C@H](C)NC(=O)[C@H](CCCCN)NC(=O)CNC(=O)[C@H](CC(=O)O)NC(=O)[C@H](CC(C)C)NC(=O)[C@@H](NC(=O)[C@@H](NC(=O)[C@H](C)NC(=O)[C@H](CC(C)C)NC(=O)[C@H](CCC(=O)O)NC(=O)[C@H](CO)NC(=O)[C@@H](NC(=O)[C@H](Cc1ccccc1)NC(=O)[C@H](CO)NC(=O)CNC(=O)[C@H](CCC(=O)O)NC(=O)C(C)(C)NC(=O)[C@@H](N)Cc1c[nH]cn1)[C@@H](C)O)[C@@H](C)O)[C@@H](C)CC)[C@@H](C)CC)C(=O)N[C@@H](C)C(=O)N[C@@H](Cc1c[nH]cn1)C(=O)N[C@@H](CCCCN)C(=O)N[C@H](C(=O)N[C@H](C(=O)N[C@@H](CC(=O)O)C(=O)O)[C@@H](C)O)[C@@H](C)CC) [Compound 31]
